From PMC3014015, “Structural Insights into Substrate Specificity in Variants of N-Acetylneuraminic Acid Lyase Produced by Directed Evolution” (Journal of Molecular Biology, 2010)

How the values were obtained:
[1] = target: T1, N-acetylneuraminic acid lyase (Escherichia coli, UniProt P0A6L4, E192Q); test: steady-state kinetics (Km), coupled lactate dehydrogenase/NADH assay; assay type: biochemical; details: read-out: Neu5Ac / Km
T1 construct: gene nanA; hexa-His-tagged protein
T1 sequence (P0A6L4 2-297 E192Q): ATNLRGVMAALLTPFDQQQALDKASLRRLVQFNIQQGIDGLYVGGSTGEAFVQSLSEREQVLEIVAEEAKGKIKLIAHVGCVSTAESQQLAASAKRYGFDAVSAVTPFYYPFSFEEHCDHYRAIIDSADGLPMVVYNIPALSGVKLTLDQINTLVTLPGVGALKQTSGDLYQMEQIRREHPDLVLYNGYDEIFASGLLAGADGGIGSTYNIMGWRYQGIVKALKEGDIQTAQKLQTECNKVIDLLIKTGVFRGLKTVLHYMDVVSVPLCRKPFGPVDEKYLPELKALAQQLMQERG

[2] = system: T2, CCCN(CCC)C(=O)[C@H](O)[C@H](O)C(O)CC(=O)C(=O)O; test: as above; assay type: biochemical, Escherichia coli
T2 construct: hexa-His-tagged protein

[3] = target: T3, N-acetylneuraminic acid lyase (Escherichia coli, UniProt P0A6L4, E192N); test: coupled cleavage assay of purified enzyme; crystal soaking gave only the cleavage product pyruvate; assay type: biochemical
T3 construct: gene nanA; hexa-His-tagged protein
T3 sequence (P0A6L4 2-297 E192N): T1 sequence (P0A6L4 2-297 E192Q)

[4] = target: E192N variant of Escherichia coli N-acetylneuraminic acid lyase (Escherichia coli); test: crystal structure; space group P2_(1), four crystallographically independent subunits (tetramer); crystals grown at 4 °C by sitting drop in 100 mM Tris-HCl pH 8.0-8.30, 200 mM NaCl, 18% (wt/vol) PEG 3350; some crystals soaked with 100 mM pyruvate and 70 mM THB

Row | stoichiometry N [4] | Compound | Km [1] | Km [2] | kcat [2] | kcat/Km [2] | coupled cleavage assay of purified enzyme; crystal soaking gave only the cleavag [3]
1 | – | N-Acetylneuraminic acid [Neu5Ac] | 3.5 ± 0.5 mM | – | – | – | –
2 | – | N-acetylneuraminic acid lyase (Escherichia coli K-12; E192Q) | – | 0.7 ± 0.05 mM | 2.83 ± 0.0667 s⁻¹ | 4170 M⁻¹ s⁻¹ | –
3 | – | N-acetylneuraminic acid lyase (Escherichia coli K-12; E192P) | – | 0.2 ± 0.02 mM | 0.817 ± 0.0167 s⁻¹ | 4330 M⁻¹ s⁻¹ | –
4 | – | N-acetylneuraminic acid lyase (Escherichia coli K-12; E192M) | – | 0.2 ± 0.03 mM | 1.17 ± 0.05 s⁻¹ | 5330 M⁻¹ s⁻¹ | –
5 | – | CCCN(CCC)C(=O)[C@H](O)[C@H](O)C(O)CC(=O)C(=O)O (stereo partly drawn) [DPAH, (5R,6R)-7-(dipropylamino)-4,5,6-trihydroxy-2,7-dioxoheptanoic acid] | – | – | – | – | confirmed that the E192N enzyme had the highest activity for DPAH
6 | – | N-acetylneuraminic acid lyase (Escherichia coli K-12; E192F) | – | 0.3 ± 0.02 mM | 1.47 ± 0.0333 s⁻¹ | 5170 M⁻¹ s⁻¹ | –
7 | 4 | E192N variant of Escherichia coli N-acetylneuraminic acid lyase (enzyme) | – | – | – | – | –
